Test results reported in US7595158B2, “Bcl2L12 polypeptide activators and inhibitors” (Dana-Farber Cancer Institute, Inc., priority 2003, dated 2009).

T1: Apaf-1 polypeptide (Homo sapiens, UniProt O14727)
T1 construct: endogenous in cells; host or cells: 293T
T1 sequence (O14727 1-1248): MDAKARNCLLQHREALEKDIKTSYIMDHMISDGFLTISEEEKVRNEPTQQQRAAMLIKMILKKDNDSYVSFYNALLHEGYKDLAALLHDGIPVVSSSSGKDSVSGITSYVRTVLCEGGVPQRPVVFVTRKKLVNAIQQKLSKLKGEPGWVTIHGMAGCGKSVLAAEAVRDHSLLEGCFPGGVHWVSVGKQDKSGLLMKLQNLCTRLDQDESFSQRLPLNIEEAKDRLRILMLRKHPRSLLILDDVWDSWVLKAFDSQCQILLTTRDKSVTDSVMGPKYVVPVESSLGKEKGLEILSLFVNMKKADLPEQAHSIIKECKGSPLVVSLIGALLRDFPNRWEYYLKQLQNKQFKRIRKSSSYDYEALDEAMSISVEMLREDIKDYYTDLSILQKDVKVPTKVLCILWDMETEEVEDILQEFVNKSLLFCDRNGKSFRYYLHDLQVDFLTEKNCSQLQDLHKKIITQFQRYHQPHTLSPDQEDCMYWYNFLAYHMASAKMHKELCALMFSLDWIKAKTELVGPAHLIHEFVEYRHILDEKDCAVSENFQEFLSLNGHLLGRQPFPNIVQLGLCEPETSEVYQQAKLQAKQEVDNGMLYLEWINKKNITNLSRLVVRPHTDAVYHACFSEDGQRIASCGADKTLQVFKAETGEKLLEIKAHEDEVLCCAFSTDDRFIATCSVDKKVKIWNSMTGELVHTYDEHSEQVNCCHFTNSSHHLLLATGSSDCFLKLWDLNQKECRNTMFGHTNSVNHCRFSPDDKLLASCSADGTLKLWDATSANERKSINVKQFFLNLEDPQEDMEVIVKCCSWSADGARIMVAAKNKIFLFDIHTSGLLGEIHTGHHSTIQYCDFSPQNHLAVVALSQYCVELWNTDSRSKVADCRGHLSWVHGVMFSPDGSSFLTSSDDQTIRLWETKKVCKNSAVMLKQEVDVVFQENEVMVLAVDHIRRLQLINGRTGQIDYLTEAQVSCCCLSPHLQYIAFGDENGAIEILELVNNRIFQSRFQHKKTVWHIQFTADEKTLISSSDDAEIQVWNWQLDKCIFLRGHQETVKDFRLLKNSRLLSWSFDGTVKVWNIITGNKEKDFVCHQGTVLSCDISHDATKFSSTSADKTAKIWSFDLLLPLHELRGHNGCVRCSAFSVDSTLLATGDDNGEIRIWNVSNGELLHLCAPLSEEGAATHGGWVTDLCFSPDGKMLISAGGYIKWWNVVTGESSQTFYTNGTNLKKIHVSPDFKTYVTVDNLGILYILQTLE


Key:
[1] = target: T1, Apaf-1 polypeptide; assay: Co-immunoprecipitation of endogenous Apaf-1 in 293T cells; format: binding; conditions: anti-V5 immunoprecipitation from 293T cells
Procedure: To confirm this interaction, 293T cells were used to test the physical interaction between Apaf-1 and Bcl2L12 polypeptides in vivo. […] To test the association between Apaf-1 and Bcl2L12 polypeptides in vivo, Bcl2L12-V5 polypeptides were expressed in 293T cells and immunoprecipitated with an anti-V5 antibody. The amount of co-immunoprecipitated endogenous Apaf-1 polypeptide then was determined by Western blot analysis.
To assess whether the BH2 domain is necessary for Apaf-1 binding, Bcl2L12-V5-ΔBH2 polypeptides were immunoprecipitated from 293T cells, and co-immunoprecipitated Apaf-1 was quantified as described.

[2] = tested on: caspase-2; caspase-3/7; caspase-6; caspase-8; and caspase-9; assay: Caspase activity with AFC-labeled peptides in lysates of STS-treated astrocytes; format: cell-based; conditions: for caspase activity (caspase-2, -3/7, -6, -8, -9): STS (500 nm) 24 hours
Procedure: The following experiment was performed to determine whether Bcl2L12 inhibits caspase activation. Briefly, a caspase activation profile was generated using fluorochrome-labeled peptides resembling the ideal cleavage sites for caspases-2 (VDVAF; SEQ ID NO:29), caspases-3/7 (DEVD; SEQ ID NO:27), caspase-6 (VEID; SEQ ID NO:31), caspase-8 (IETD; SEQ ID NO:30), and caspase-9 (LEHD; SEQ ID NO:28). Two confluent 15 cm dishes of astrocytes (pBabe or Bcl2L12-V5 transfected) were left untreated or treated with STS (500 nm) for 24 hours and lysed in a lysis buffer containing 1% Trition X-100. The lysed cells were then spun for 15 minutes at 14,000 rpm at 4° C. to obtain a postnuclear supernatant. The supernatants (standardized to 20 mg of protein) were incubated with 40 μM of AFC labeled peptide substrate for 1 hour at 37° C. The samples were read in a fluorescence plate reader, and the specific RFUs were calculated. In the presence of active caspases, the fluorogenic group AFC is released from the peptide, and its fluorescence can be quantified using a plate reader.
The mechanism of action of EGFR*, in contrast to Bcl2L12, stems from the activation of upstream survival pathways that converge to inhibit cytochrome c redistribution and subsequent caspase-9 processing (FIG. 8B), as reported previously (Nagane et al., Proc Natl Acad Sci USA 95:5724-9(1998)). In addition, the ability of Bcl2L12 polypeptide to inhibit effector caspase function is reflected in decreased levels of the caspase-9 p37 as a result of caspase-3-mediated cleavage intermediate (FIG. 8A, 16 hours; Fujita et al., Cell Death Differ. 8:335-44 (2001)). […] As a consequence of a caspase-3-mediated feedback mechanism (Fujita et al., Cell Death Differ. 8:335-44 (2001); Slee et al., J Cell Biol. 144, 281-92 (1999)), caspase-9 processing in later phases of apoptosis progression was enhanced (FIG. 8C, 16 hours). […] Caspase activities were determined fluorometrically using a fluorescence plate reader. […]

caspase activity (caspase-2, -3/7, -6, -8, -9) [2] | Molecule | association with Apaf-1 polypeptide [1] | DEVDase activity ([2]; 0.5 μM STS, pBabe about 8500 RFUs)
significantly impaired | Bcl2L12-V5: Bcl2L12 polypeptide having the V5 epitope tag, ectopically expressed from pBabe-Bcl2L12-V5 vector; human amino acid sequence 1-334 (protein, left off: small tags and cut ends) MGRPAGLFPPLCPFLGFRPEACWERHMQIERAPSVPPFLRWAGYRPGPVRRRGKVELIKFVRVQWRRPQVEWRRRRWGPGPGASMAGSEELGLREDTLRVLAAFLRRGEAAGSPVPTPPRSPAQEEPTDFLSRLRRCLPCSLGRGAAPSESPRPCSLPIRPCYGLEPGPATPDFYALVAQRLEQLVQEQLKSPPSPELQGPPSTEKEAILRRLVALLEEEAEVINQKLASDPALRSKLVRLSSDSFARLVELFCSRDDSSRPSRACPGPPPPSPEPLARLALAMELSRRVAGLGGTLAGLSVEHVHSFTPWIQAHGGWEGILAVSPVDLNLPLD | found to be associated | about 3500 RFUs
even more pronounced inhibition | Bcl2L12-V5-ΔBH2: V5 tagged mutant lacking amino acid residues 311-334 (BH2 domain) of human Bcl2L12; sequence 1-310 (protein, left off: small tags and cut ends) MGRPAGLFPPLCPFLGFRPEACWERHMQIERAPSVPPFLRWAGYRPGPVRRRGKVELIKFVRVQWRRPQVEWRRRRWGPGPGASMAGSEELGLREDTLRVLAAFLRRGEAAGSPVPTPPRSPAQEEPTDFLSRLRRCLPCSLGRGAAPSESPRPCSLPIRPCYGLEPGPATPDFYALVAQRLEQLVQEQLKSPPSPELQGPPSTEKEAILRRLVALLEEEAEVINQKLASDPALRSKLVRLSSDSFARLVELFCSRDDSSRPSRACPGPPPPSPEPLARLALAMELSRRVAGLGGTLAGLSVEHVHSFTP | bound comparable levels of Apaf-1 polypeptide | 
